B1: Chromodomain-helicase-DNA-binding protein 1-like (Homo sapiens), Q86WJ1-1 (parent)
chain: MERAGATSRGGQAPGFLLRLHTEGRAEAARVQEQDLRQWGLTGIHLRSYQLEGVNWLAQRFHCQNGCILGDEMGLGKTCQTIALFIYLAGRLNDEGPFLILCPLSVLSNWKEEMQRFAPGLSCVTYAGDKEERACLQQDLKQESRFHVLLTTYEICLKDASFLKSFPWSVLVVDEAHRLKNQSSLLHKTLSEFSVVFSLLLTGTPIQNSLQELYSLLSFVEPDLFSKEEVGDFIQRYQDIEKESESASELHKLLQPFLLRRVKAEVATELPKKTEVVIYHGMSALQKKYYKAILMKDLDAFENETAKKVKLQNILSQLRKCVDHPYLFDGVEPEPFEVGDHLTEASGKLHLLDKLLAFLYSGGHRVLLFSQMTQMLDILQDYMDYRGYSYERVDGSVRGEERHLAIKNFGQQPIFVFLLSTRAGGVGMNLTAADTVIFVDSDFNPQNDLQAAARAHRIGQNKSVKVIRLIGRDTVEEIVYRKAASKLQLTNMIIEGGHFTLGAQKPAADADLQLSEILKFGLDKLLASEGSTMDEIDLESILGETKDGQWVSDALPAAEGGSRDQEEGKNHMYLFEGKDYSKEPSKEDRKSFEQLVNLQKTLLEKASQEGRSLRNKGSVLIPGLVEGSTKRKRVLSPEELEDRQKKRQEAAAKRRRLIEEKKRQKEEAEHKKKMAWWESNNYQSFCLPSEESEPEDLENGEESSAELDYQDPDATSLKYVSGDVTHPQAGAEDALIVHCVDDSGHWGRGGLFTALEKRSAEPRKIYELAGKMKDLSLGGVLLFPVDDKESRNKGQDLLALIVAQHRDRSNVLSGIKMAALEEGLKKIFLAAKKKKASVHLPRIGHATKGFNWYGTERLIRKHLAARGIPTYIYYFPRSKSAVLHSQSSSSSSRQLVP

Variants of: B1
Details: with parp1_human PARP1, P09874
Sequence of parp1_human PARP1, P09874 (P09874 whole entry): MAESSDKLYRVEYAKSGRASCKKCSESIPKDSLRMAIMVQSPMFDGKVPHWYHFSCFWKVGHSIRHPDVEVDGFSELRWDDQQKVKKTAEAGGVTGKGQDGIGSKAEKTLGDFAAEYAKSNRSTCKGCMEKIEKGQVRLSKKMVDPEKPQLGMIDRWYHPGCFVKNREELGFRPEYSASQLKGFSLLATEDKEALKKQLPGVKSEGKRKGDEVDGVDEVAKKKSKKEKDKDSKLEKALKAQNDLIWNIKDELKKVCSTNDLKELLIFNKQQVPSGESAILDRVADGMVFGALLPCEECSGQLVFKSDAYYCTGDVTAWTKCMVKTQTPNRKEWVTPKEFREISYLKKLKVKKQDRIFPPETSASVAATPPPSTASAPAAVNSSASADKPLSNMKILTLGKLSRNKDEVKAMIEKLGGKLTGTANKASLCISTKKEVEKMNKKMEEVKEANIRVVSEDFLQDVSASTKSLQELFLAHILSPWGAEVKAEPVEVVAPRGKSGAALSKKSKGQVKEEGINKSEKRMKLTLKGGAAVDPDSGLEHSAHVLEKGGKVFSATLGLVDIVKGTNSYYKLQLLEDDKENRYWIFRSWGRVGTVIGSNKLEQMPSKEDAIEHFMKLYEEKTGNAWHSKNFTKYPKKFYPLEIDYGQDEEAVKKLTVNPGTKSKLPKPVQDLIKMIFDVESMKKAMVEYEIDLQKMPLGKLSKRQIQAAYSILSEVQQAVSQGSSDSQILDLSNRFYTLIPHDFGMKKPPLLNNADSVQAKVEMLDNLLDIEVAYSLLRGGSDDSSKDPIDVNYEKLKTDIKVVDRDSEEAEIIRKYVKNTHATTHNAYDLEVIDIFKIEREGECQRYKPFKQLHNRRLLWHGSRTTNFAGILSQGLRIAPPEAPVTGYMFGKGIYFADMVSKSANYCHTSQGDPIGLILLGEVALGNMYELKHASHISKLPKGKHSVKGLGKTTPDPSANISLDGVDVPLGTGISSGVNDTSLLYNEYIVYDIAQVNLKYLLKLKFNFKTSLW

Row | effect of a mutation on the interaction | Variant
1 | disrupting interaction | D723A
2 | disrupting interaction | E175Q

From IntAct's records for PubMed 19666485
